{"source": "patent US20250152742A1", "about": "“COMPOSITIONS AND METHODS FOR NEUROLOGICAL DISEASES” (Trames Bio, Inc., priority 2022, published 2025)", "molecules": {"B1": {"name": "CODA283: engineered receptor: Y115E_N379K in SEQ ID NO: 33 (protein)", "chain": "MRCSPGGVWLALAASLLHVSLQGEFQRKLYKELVKNYNPLERPVANDSQPLTVYFSLSLLQIMDVDEKNQVLTTNIWLQMSWTDHYLQWNVSEYPGVKTVRFPDGQIWKPDILLENSADERFDATFHTNVLVNSSGHCQYLPPGIFKSSCPMDLKNFPMDVQTCKLKFGSWSYGGWSLDLQMQEADISGYIPNGEWDLVGIPGKRSERFYECCKEPYPDVTFTVTMRRRMGYYLIQMYIPSLLIVILSWISFWINMDAAPARVGLGITTVLTMTTQSSGSRASLPKVSYVKAIDIWMAVCLLFVFSALLEYAAVNFVSRQHKELLRFRRKRRHHKSPMLNLFQEDEAGEGRFNFSAYGMGPACLQAKDGISVKGANNSKTTNPPPAPSKSPEEMRKLFIQRAKKIDKISRIGFPMAFLIFNMFYWIIYKIVRREDVHNQ", "modifications": "synthetic sequence of chimeric LGIC"}}, "system": "engineered chimeric receptor SEQ ID NO: 33 and its mutants (human α7-nAChR ligand binding domain / human GlyRα1 ion pore domain) in Lenti-X 293T cells", "assay": "YFP fluorescence quenching anion reporter plate reader assay (percent quench, EC50)", "format": "cell-based", "details": "for YFP fluorescence quenching using CNL001 (percent quench): receptor named in row", "text": "To screen these mutant LGICs for those having novel response profiles to ligands, an anion reporter assay was developed to assess the function of the LGICs in a high throughput format. In this assay, cells expressing a YFP reporter whose fluorescence is quenched in the presence of anion are transfected with DNA encoding the channel of interest. Upon exposure to ligand, channels that are activated will flux anion, resulting in a dose-dependent quench of the YFP that can be detected on a plate reader. The greater the quench signal (i.e., the more positive the value), the higher the ligand activity on the receptor is.\nLenti-X 293T cells (LX293T, Clontech) were maintained in DMEM containing 10% FBS and 1% penicillin/streptomycin (Invitrogen). […] Two days before assay, cells were split at a density of 20,000 cells/well in a 96-well tissue culture plate coated with poly-d lysine (Thermo Scientific). The next day, the cells were transiently transfected with 0.1 μg of DNA per well using standard Fugene protocol (Promega). On the day of assay, cells were washed 2 times in 1X extracellular solution (1X ECS: 140 mM NaCl, 5 mM KCl, 1 mM MgCl2, 2 mM CaCl2, 10 mM HEPES, 10 mM glucose, pH 7.2, mOsms 300). After the last wash, 100 μL of 1X ECS was added to the wells and the plate was incubated at 37° C. for 30 min. While incubating the plate, the drugs were diluted to a 2X concentration in 1X ECS-Nal (same components as 1X ECS except the 140 mM NaCl was replaced by 140 mM Nal). The plates were then read on a Flexstation3 (Molecular Devices). Each well, 8 wells at a time, of the plate is read for 2 min using a Flexstation3 (Molecular Devices) as follows: 1) a baseline YFP fluorescence is read for 17 sec, 2) 100 μL of ligand is added, and 3) the changes in YFP fluorescence are then measured every 1.3 sec for 1 minute and 43 seconds. The percent quench is calculated from the average fluorescence of the last 10 seconds of the read divided by the baseline average of the first 15 seconds prior to the ligand addition.\nFIGS. 1A-1J provide heat maps of the percent quench of YFP fluorescence following stimulation by various doses of either acetylcholine or the non-native ligand as indicated in the Figures. CODA71 (SEQ ID NO: 33) was used as a control, and CODA75 (SEQ ID NO: 29, a non-responding chimeric engineered receptor) was used as the negative control. Quenching of the fluorescence signal, as indicated by blue shaded cells, indicate the level of engineered receptor activation by the non-native ligand at that concentration.", "data": [{"molecule": "B1", "values": [{"measurement": "YFP fluorescence quenching using CNL001 (percent quench)", "setting": "1 nM CNL001, first column so headed", "value": "−0.713", "unit": "%"}, {"measurement": "YFP fluorescence quenching using CNL001 (percent quench)", "setting": "1 nM CNL001, second column so headed", "value": "−0.621", "unit": "%"}, {"measurement": "YFP fluorescence quenching using TC-5619/Bradanicline (percent quench)", "setting": "1 nM brd (TC-5619/Bradanicline)", "value": 0.59, "unit": "%"}, {"measurement": "YFP fluorescence quenching using TC-5619/Bradanicline (percent quench)", "setting": "3 nM brd (TC-5619/Bradanicline)", "value": "−6.41", "unit": "%"}, {"measurement": "YFP fluorescence quenching using CNL001 (percent quench)", "setting": "10 nM CNL001, first column so headed", "value": 7.739, "unit": "%"}, {"measurement": "YFP fluorescence quenching using CNL001 (percent quench)", "setting": "10 nM CNL001, second column so headed", "value": 15.277, "unit": "%"}, {"measurement": "YFP fluorescence quenching using TC-5619/Bradanicline (percent quench)", "setting": "10 nM brd (TC-5619/Bradanicline)", "value": "−1.58", "unit": "%"}, {"measurement": "YFP fluorescence quenching using TC-5619/Bradanicline (percent quench)", "setting": "30 nM brd (TC-5619/Bradanicline)", "value": "−14.24", "unit": "%"}, {"measurement": "YFP fluorescence quenching using CNL001 (percent quench)", "setting": "50 nM CNL001, first column so headed", "value": 19.489, "unit": "%"}, {"measurement": "YFP fluorescence quenching using CNL001 (percent quench)", "setting": "50 nM CNL001, second column so headed", "value": 33.703, "unit": "%"}, {"measurement": "YFP fluorescence quenching using ABT-126 (percent quench)", "setting": "50 nM abt (ABT-126)", "value": "−22.65", "unit": "%"}, {"measurement": "YFP fluorescence quenching using CNL001 (percent quench)", "setting": "100 nM CNL001, first column so headed", "value": 56.886, "unit": "%"}, {"measurement": "YFP fluorescence quenching using CNL001 (percent quench)", "setting": "100 nM CNL001, second column so headed", "value": 60.171, "unit": "%"}, {"measurement": "YFP fluorescence quenching (percent quench)", "setting": "100 nM CNL002", "value": "−5.81", "unit": "%"}, {"measurement": "YFP fluorescence quenching using ABT-126 (percent quench)", "setting": "100 nM abt (ABT-126)", "value": "−20.55", "unit": "%"}, {"measurement": "YFP fluorescence quenching using AZD-0328 (percent quench)", "setting": "100 nM azd0328", "value": "−2.1", "unit": "%"}, {"measurement": "YFP fluorescence quenching using TC-5619/Bradanicline (percent quench)", "setting": "100 nM brd (TC-5619/Bradanicline)", "value": 33.36, "unit": "%"}, {"measurement": "YFP fluorescence quenching using ABT-126 (percent quench)", "setting": "300 nM abt (ABT-126)", "value": "−12.93", "unit": "%"}, {"measurement": "YFP fluorescence quenching using AZD-0328 (percent quench)", "setting": "300 nM azd0328", "value": 38.2, "unit": "%"}, {"measurement": "YFP fluorescence quenching using TC-5619/Bradanicline (percent quench)", "setting": "300 nM brd (TC-5619/Bradanicline)", "value": 43.81, "unit": "%"}, {"measurement": "YFP fluorescence quenching using CNL001 (percent quench)", "setting": "1 uM CNL001, first column so headed", "value": 69.836, "unit": "%"}, {"measurement": "YFP fluorescence quenching using CNL001 (percent quench)", "setting": "1 uM CNL001, second column so headed", "value": 73.855, "unit": "%"}, {"measurement": "YFP fluorescence quenching (percent quench)", "setting": "1 uM CNL002", "value": 9.69, "unit": "%"}, {"measurement": "YFP fluorescence quenching using ABT-126 (percent quench)", "setting": "1 uM abt (ABT-126)", "value": 1.71, "unit": "%"}, {"measurement": "YFP fluorescence quenching using TC-5619/Bradanicline (percent quench)", "setting": "1 uM brd (TC-5619/Bradanicline)", "value": 75.39, "unit": "%"}, {"measurement": "YFP fluorescence quenching (percent quench)", "setting": "10 uM ach (acetylcholine)", "value": "−6.16", "unit": "%"}, {"measurement": "YFP fluorescence quenching (percent quench)", "setting": "30 uM CNL002", "value": "−12.85", "unit": "%"}, {"measurement": "YFP fluorescence quenching using AZD-0328 (percent quench)", "setting": "30 uM azd0328", "value": 79.44, "unit": "%"}, {"measurement": "YFP fluorescence quenching (percent quench)", "setting": "100 uM ach (acetylcholine)", "value": "−11.12", "unit": "%"}, {"measurement": "YFP fluorescence quenching (percent quench)", "setting": "1 mM ach (acetylcholine)", "value": "−2.74", "unit": "%"}, {"measurement": "YFP fluorescence quenching (percent quench)", "setting": "3 mM ach (acetylcholine)", "value": 53.61, "unit": "%"}, {"measurement": "YFP fluorescence quenching using Facinicline, 30 nM fac", "setting": "ligand Facinicline 30 nM", "value": 6.39}, {"measurement": "YFP fluorescence quenching using Facinicline, 300 nM fac", "setting": "ligand Facinicline 300 nM", "value": 78.36}, {"measurement": "YFP fluorescence quenching using Facinicline, 10 uM fac", "setting": "ligand Facinicline 10 uM", "value": 81.93}, {"measurement": "YFP fluorescence quenching using Facinicline, 30 uM fac", "setting": "ligand Facinicline 30 uM", "value": 78.63}, {"measurement": "YFP fluorescence quenching using TC-6987, 1 uM tc6987", "setting": "ligand TC-6987 1 uM", "value": "−9.54"}, {"measurement": "YFP fluorescence quenching using TC-6987, 10 uM tc6987", "setting": "ligand TC-6987 10 uM", "value": "−7.06"}, {"measurement": "YFP fluorescence quenching using TC-6987, 500 uM tc6987", "setting": "ligand TC-6987 500 uM", "value": "−15.15"}]}]}
